Patent US20060029603A1

Target: GST-human NOGO-A56 (human) [GST: P08515]
Test: SPR (Biacore 3000), GST-human NOGO-A56 on CM5, antibody as analyte; single experiment

Sequence of GST-human NOGO-A56 (human) [GST: P08515] (P08515 1-218, tags or fused parts left off): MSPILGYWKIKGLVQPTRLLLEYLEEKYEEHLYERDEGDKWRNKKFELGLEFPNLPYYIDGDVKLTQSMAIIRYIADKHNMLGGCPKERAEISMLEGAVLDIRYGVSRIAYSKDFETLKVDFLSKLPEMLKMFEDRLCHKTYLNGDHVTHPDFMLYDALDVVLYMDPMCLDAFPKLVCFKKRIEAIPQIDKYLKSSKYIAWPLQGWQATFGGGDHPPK

11C7 (chimeric version) (antibody)
Kd: 0.057 nM | koff: 8.25e-05 s⁻¹ | kon: 1.44e+06 M⁻¹ s⁻¹
